The values below come from article PMC11653685, “Crystal structure of Alzheimer's disease phospholipase D3 provides a molecular basis for understanding its normal and pathological functions” (The Febs Journal, 2024).

This data set concerns the molecule itself. Kind of data set: crystal structure; hPLD3 luminal domain with the hexa-His tag left on; crystals grown at 20 °C in 0.17 M ammonium sulfate, 15% glycerol, 25% PEG 4000; 2.3 Å; two molecules in the asymmetric unit.

B1: human phospholipase D3 (hPLD3) luminal domain, residues N71-L490 (domain or fragment, UniProt Q8IV08 71-490, looked up)
chain: NQRPAPCYDPCEAVLVESIPEGLDFPNASTGNPSTSQAWLGLLAGAHSSLDIASFYWTLTNNDTHTQEPSAQQGEEVLRQLQTLAPKGVNVRIAVSKPSGPQPQADLQALLQSGAQVRMVDMQKLTHGVLHTKFWVVDQTHFYLGSANMDWRSLTQVKELGVVMYNCSCLARDLTKIFEAYWFLGQAGSSIPSTWPRFYDTRYNQETPMEICLNGTPALAYLASAPPPLCPSGRTPDLKALLNVVDNARSFIYVAVMNYLPTLEFSHPHRFWPAIDDGLRRATYERGVKVRLLISCWGHSEPSMRAFLLSLAALRDNHTHSDIQVKLFVVPADEAQARIPYARVNHNKYMVTERATYIGTSNWSGNYFTETAGTSLLVTQNGRGGLRSQLEAIFLRDWDSPYSHDLDTSADSVGNACRLL
modifications: N-linked GlcNAc at N236 and N284 (seen in the electron density)
notes: also called soluble form of the enzyme; source: Expi293 GnTI- cells, transfected, secreted; purified from culture supernatant (HisTrap excel, Superdex 200 SEC); not shown: His6, N-terminal, kept
With B1, the stoichiometry N (commonly a count of units in the complex or per binding partner) came to 2.
